In the supplement of paper PMC10567573:

B1: LOXL2 (parent)
chain: RLLRFSSQIHNNGQSDFRPKNGRH

Variants of: B1
Experiment: protein stability index of a GFP-peptide fusion (GPS, HEK-293T) (PSI 1-6); higher = more stable
Conditions: c terminus: a fixed tail appended
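Also: lentivirally expressed fusions sorted by FACS into six bins by GFP to DsRed ratio, PSI derived from sequencing read proportions per bin multiplied by bin number.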

Protein stability index of substitutions, site by site:
Q14: R 2.5; D 2.84; G 2.52; W 2.06; Y 1.91; F 1.8; C 2.3; N 2.79; P 2.81; I 2.11; H 2.59; T 3.35; L 2.19; S 3.15; K 2.39; A 2.55; V 2.15; E 3.26; M 2.5
Q8: A 2.94; F 2.07; K 2.14; P 3.54; D 3.81; V 2.95; N 2.95; C 2.21; L 2.29; S 2.73; I 2.23; E 3.17; W 1.77; Y 2.05; H 2.5; T 2.67; G 2.87; M 1.95; R 2.91
F17: K 3.34; E 3.67; S 3.15; G 3.04; Q 3.42; H 3.52; W 2.32; R 3.06; D 3.75; Y 2.69; C 2.8; P 3.45; N 3.42; A 2.95; V 2.95; M 3.06; T 3.31; I 3.38; L 2.75
D16: T 2.29; A 2.36; P 2.11; L 2.7; H 2.35; W 2.37; N 2.27; S 2.73; K 1.94; M 1.77; F 1.97; C 1.73; G 2.12; E 2.72; I 2.17; V 2.15; R 2.23; Y 2.06; Q 2.51
N11: M 2.81; Y 2.17; S 2.54; D 3.29; E 2.86; I 2.39; V 4.07; G 2.23; L 2.69; R 2.2; Q 2.46; W 2.51; P 2.65; F 2.23; C 2.17; H 2.8; A 2.84; K 2.29; T 2.7
H10: F 2.13; E 3.43; R 2.36; G 2.57; A 3.28; S 2.71; M 2.47; V 2.68; I 2.24; T 2.89; L 2.14; Y 1.87; Q 2.83; C 2.46; K 2.8; W 2.13; P 3.12; D 3.68; N 3.06
F5: A 3.46; L 2.54; D 3.84; R 3.69; K 3.29; P 3.71; V 3.74; Y 2.96; M 2.77; C 3.06; E 3.94; Q 3.6; G 4.21; T 3.99; N 3.92; W 2.15; I 2.72; H 3.95; S 3.81
R4: N 3.35; W 2.15; V 2.62; Y 2.66; S 2.79; Q 2.57; P 3.86; T 3.09; L 2.36; M 2.81
S6: I 3.34; Q 2.71; L 2.45; R 2.99; E 3.62; P 3.41; M 2.51; G 2.64; V 3.85; K 3.05; N 3.03; A 2.65; D 3.81; Y 2.89; T 2.46; C 3.08; H 2.37; F 2.09; W 2.56
G13: I 2.31; V 2.24; L 2.39; R 3.19; C 1.97; D 3.19; N 2.94; K 2.15; F 2.25; A 2.48; Q 3.2; M 2.81; W 2.56; T 2.74; H 3.06; E 3.31; Y 2.09; P 2.62; S 2.46
K20: I 2.17; Q 2.54; V 2.35; F 2.22; A 2.49; L 1.89; Y 2.23; D 2.91; W 2.08; E 3.45; S 2.78; P 2.47; T 3.01; R 2.78; G 2.79; N 2.92; M 1.92; C 2.35; H 2.6
N12: M 2.36; Y 2.39; K 2.65; V 2.87; G 3.16; C 2.36; T 2.72; F 1.74; R 2.52; E 2.57; P 3.15; I 2.27; A 2.89; Q 2.57; D 3.69; S 3.25; W 2.55; L 2.15; H 2.59
I9: D 3.5; V 2.99; M 3.07; L 2.12; G 3.48; W 2.74; P 3.44; R 3.24; N 3.19; Q 3.14; K 2.31; E 3.93; A 2.81; C 3.11; S 3.04; T 3.14; Y 2.4; H 3.26; F 2.32
G22: A 2.57
R18: S 3.05; T 3.29; G 2.33; H 2.45; M 2.67; V 3.04; F 2.6; K 3.23; N 2.87; D 3.29; A 3.21; W 3.03; C 2.42; Y 2.59; I 2.61; P 2.83; L 2.31; Q 2.99; E 3.27
N21: R 2.62; T 2.37; S 2.33; W 1.52; Y 1.77; L 2.17; F 2.04; V 2.41; A 2.82; H 2.23; M 2.27; E 2.97; P 2.4; K 2.85; C 2.13; D 2.93; I 1.79; G 2.49; Q 2.71
P19: Y 2.37; A 2.67; I 2.58; Q 2.7; K 2.71; D 2.9; S 2.98; V 2.04; G 2.78; M 2.21; R 2.41; N 2.84; H 2.54; E 3.29; W 2.76; F 2.13; C 2.52; T 2.32; L 2.54
S15: V 2.44; H 3.05; Q 2.77; R 2.55; M 2.2; W 2.44; K 2.42; T 2.8; F 2.28; I 2.72; C 2.65; P 3.12; L 2.36; E 3.14; D 3.06; N 2.36; G 3.29; Y 2.83; A 2.61
S7: H 2.44; F 1.79; Q 2.18; V 2.04; A 2.5; L 1.78; T 2.21; P 4.2; W 2.06; G 2.46; N 2.79; M 1.79; I 1.89; R 2.25; E 2.79; Y 2.25; K 2.21; C 2.41; D 3.57
